Where a chain is given by its changes, count along the chain named. Names may count otherwise.
B1: I153T: bx9 SEQ ID NO:1 mutant (protein)
chain: MASSRTGAGAGGRVVVFPFPFQGHFNPVMRLARALHARGLAITVFHSGALDPADYPADYRFVPVTVEADPKLLASEDIAAIVTTLNASCDAPFRARLSALLAAEGRDSVRCVFTDVSWNAVLTASSDLGVPALGMMTASAASLRDYMAYRTLTDKGYLPVKEERKEDPVPELPPYLVKDLLRVDTSDLEEFAELLARTVTAARRASGLIFNTFPLIETDTLAEIHKALSVPVFAVAPLNKLVPTATASLHGVVQADRGCLQWLDTQQPGSVLYVSFGSMAAMDPHEFVELAWGLADSKRPFVWVVRPNLIRGFESGALPDGVEDEVRGRGIVVAWAPQEEVLAHPAVGGFLTHNGWNSTVEAISEGVPMVCCPRHGDQFGNMRYVCDVWKVGTELVGEQLERGQVKAAIDRLFGTKEGEEIKERMKEFKIAAAKGIGIGVDVDETASPRTDLTDLVDLIKSF
modifications: Zea mays
B2: A202M: bx9 SEQ ID NO:1 mutant (protein)
chain: B1 chain with T153I, A202M
modifications: Zea mays
B3: I153L: bx9 SEQ ID NO:1 mutant (protein)
chain: B1 chain with T153L
modifications: Zea mays
B4: T198V: bx9 SEQ ID NO:1 mutant (protein)
chain: B1 chain with T153I, T198V
modifications: Zea mays
B5: I153R: bx9 SEQ ID NO:1 mutant (protein)
chain: B1 chain with T153R
modifications: Zea mays
B6: I153Y: bx9 SEQ ID NO:1 mutant (protein)
chain: B1 chain with T153Y
modifications: Zea mays
B7: L195I: bx9 SEQ ID NO:1 mutant (protein)
chain: B1 chain with T153I, L195I
modifications: Zea mays
B8: I153K: bx9 SEQ ID NO:1 mutant (protein)
chain: B1 chain with T153K
modifications: Zea mays
B9: I153M: bx9 SEQ ID NO:1 mutant (protein)
chain: B1 chain with T153M
modifications: Zea mays
B10: A202L: bx9 SEQ ID NO:1 mutant (protein)
chain: B1 chain with T153I, A202L
modifications: Zea mays
B11: I153Q: bx9 SEQ ID NO:1 mutant (protein)
chain: B1 chain with T153Q
modifications: Zea mays
B12: L194N: bx9 SEQ ID NO:1 mutant (protein)
chain: B1 chain with T153I, L194N
modifications: Zea mays
B13: A202V: bx9 SEQ ID NO:1 mutant (protein)
chain: B1 chain with T153I, A202V
modifications: Zea mays
B14: L194T: bx9 SEQ ID NO:1 mutant (protein)
chain: B1 chain with T153I, L194T
modifications: Zea mays
B15: I153V: bx9 SEQ ID NO:1 mutant (protein)
chain: B1 chain with T153V
modifications: Zea mays
B16: L194E: bx9 SEQ ID NO:1 mutant (protein)
chain: B1 chain with T153I, L194E
modifications: Zea mays
B17: A202C: bx9 SEQ ID NO:1 mutant (protein)
chain: B1 chain with T153I, A202C
modifications: Zea mays
B18: L194Q: bx9 SEQ ID NO:1 mutant (protein)
chain: B1 chain with T153I, L194Q
modifications: Zea mays
B19: V199N: bx9 SEQ ID NO:1 mutant (protein)
chain: B1 chain with T153I, V199N
modifications: Zea mays
B20: L194A: bx9 SEQ ID NO:1 mutant (protein)
chain: B1 chain with T153I, L194A
modifications: Zea mays
B21: L194I: bx9 SEQ ID NO:1 mutant (protein)
chain: B1 chain with T153I, L194I
modifications: Zea mays
B22: L194D: bx9 SEQ ID NO:1 mutant (protein)
chain: B1 chain with T153I, L194D
modifications: Zea mays
B23: I153F: bx9 SEQ ID NO:1 mutant (protein)
chain: B1 chain with T153F
modifications: Zea mays
B24: I153C: bx9 SEQ ID NO:1 mutant (protein)
chain: B1 chain with T153C
modifications: Zea mays
B25: L194C: bx9 SEQ ID NO:1 mutant (protein)
chain: B1 chain with T153I, L194C
modifications: Zea mays
B26: L194G: bx9 SEQ ID NO:1 mutant (protein)
chain: B1 chain with T153I, L194G
modifications: Zea mays
B27: L194V: bx9 SEQ ID NO:1 mutant (protein)
chain: B1 chain with T153I, L194V
modifications: Zea mays

experiment: UDP luminescence plate assay of E. coli extracts, saturation mutants of SEQ ID NO: 1, herbicide V; type: biochemical, Zea mays; conditions: improvement factor relative to w/t bx9 = 1.0, rounded to nearest 0.5; extract activity basis; compound V
Description: Competent BL21 (DE3) cells are transformed as in the foregoing examples and, following seed culturing, grown and autoinduced in plates in a 0.5-1 ml volume of autoinduction medium containing 50 ug/ml kanamycin. Plates are incubated at 37° C. and shaken at 900 rpm. Growth is monitored by taking 20 ul aliquots, diluting 10 fold into flat-bottomed 96 well microtiter plates and reading OD600n at t=0, 1, 2, 2½ and 3 hours if necessary. At a (corrected) OD600 nm˜0.2, plates are transferred to 20° C. and shaken overnight at 900 rpm in a Jencons VWR plate incubator. After ˜18-20 h the final OD600 readings are recorded and the plates centrifuged at 4600 rpm (bench top centrifuge) for 10 min at 4° C. The supernatant is discarded and the pellets then washed with 0.25 ml PBS by repeat centrifugation and removal of supernatant before freezing cell pellets at −80° C. To prepare extracts, plates are allowed to thaw for 30 min and then pellets are resuspended in 0.25 ml of a suitable lysis buffer (for example—50 mM Tris HCL buffer at pH 8.0, 5% glycerol containing 50 mM NaCl and lysonase) mixed, incubated at room temperature for a sufficient time for lysis to be near complete and then centrifuged to remove cell debris and 100 ul of supernatant extract removed to a 96 well V-shaped well plate and stored on ice prior to assay.
Optionally plate assays are stopped with brief heating to 95 C before returning to ice and addition of UDP-Glo detection reagent followed by incubation at lab temperature. […] In addition a UDP standard curve is run alongside each set of plate tests.
Making use of the ELISA assay it is then possible to calculate a specific activity (e.g. in Relative Luminescence Units (RLU)/min/ug bx protein) based upon the amount of each mutant bx9 polypeptide expressed in each well. […] The specific activity of the various test mutant extracts on the same plate are then expressed as a fraction of the specific activity of the w/t bx9 and thus the ‘improvement factor’ versus the w/t expressed as a decimal where, for example, ‘0.5’ means half the specific activity of the wild type and 2.0 means twice the specific activity of the wild type. However, as will be readily apparent to the skilled man, particularly in cases where the UDP assay signal was low (with poor signal to noise versus the background) and/or the ELISA measurement of bx protein also low such a method is prone to generate spurious high specific activity numbers and uncertain numbers.

Molecule | Preferred amino acid substitutions and (IF) based on RLU/min/ul | Most Preferred amino acid substitutions and (IF) based on RLU/min/ul
B1 | T,C,K,V,L,M,Y(1.0); | –
B2 | S,I,C,M(1.0) | –
B3 | T,C,K,V,L,M,Y(1.0); | –
B4 | – | V(2.0)
B5 | Q,R,F(1.5) | –
B6 | T,C,K,V,L,M,Y(1.0); | –
B7 | I(1.0) | –
B8 | T,C,K,V,L,M,Y(1.0); | –
B9 | T,C,K,V,L,M,Y(1.0); | –
B10 | T,I,V,L,F(1.5) | –
B11 | Q,R,F(1.5) | –
B12 | – | C,N,V(3.0)
B13 | T,I,V,L,F(1.5) | –
B14 | 1.5 | –
B15 | T,C,K,V,L,M,Y(1.0); | –
B16 | 1.0 | –
B17 | S,I,C,M(1.0) | –
B18 | 1.5 | –
B19 | M,N(1.0) | –
B20 | – | 2.5
B21 | – | 2.0
B22 | 1.0 | –
B23 | Q,R,F(1.5) | –
B24 | T,C,K,V,L,M,Y(1.0); | –
B25 | – | C,N,V(3.0)
B26 | 1.0 | –
B27 | – | C,N,V(3.0)

— patent publication US20200270588A1, “GLUCOSYL TRANSFERASE POLYPEPTIDES AND METHODS OF USE” (Syngenta Participations AG, priority 2017, published 2020)
